This note sets out measurements from patent US20180155432A1 (INSTITUT NATIONAL DE LA RECHERCHE SCIENTIFIQUE, published 2018).

The target of the experiment is T1, recombinant human galectin-1 (human, UniProt P09382 2-135).
T1 construct: Used as the galectin selectivity control; also called hGal-1; Gal-1
Briefly: solid phase fluorescent binding assay; galectin coated at 10 µg/ml, streptavidin R-phycoerythrin detection. As for the experimental part:
Recombinant hGal-7 or hGal-1 (10 μg/mL) was coated overnight at 4° C. on black, flat bottom, 96-well polystyrene microplates (Ultident®, Montreal, QC, Canada). Thereafter, the plate was blocked with Reagent diluent (PBS-BSA 1%) for 1h, then incubated with unlabeled hGal-7₍₁₂₉₋₁₃₅₎ (cold) for 60 min and finally incubated with biotin-labeled [Ah⁰]hGal-7₍₁₂₉₋₁₃₅₎ for 2h. Lastly, Streptavidin R-phycoerythrin (1/500, Jackson Immunoresearch®, West Grove, Pa., USA) was applied to samples for 30 min. All incubations were performed at room temperature and the washes between incubations were done with 20 mM potassium phosphate buffer pH 7.1. The plate was read by a Tecan® Infinite M1000 PRO microplate reader at excitation and emission wavelengths of 488 nm and 670 nm, respectively.

T1 sequence (P09382 2-135 limits assumed): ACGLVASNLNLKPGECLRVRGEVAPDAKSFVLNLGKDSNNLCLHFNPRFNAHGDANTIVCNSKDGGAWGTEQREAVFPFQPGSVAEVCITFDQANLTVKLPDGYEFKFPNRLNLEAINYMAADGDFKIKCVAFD

B1: biotin-labeled [Ahx0]hGal-7(129-135) (peptide)
peptide: LDSVRIF
HELM: PEPTIDE1{[O=C1N[C@H]2[C@H](CS[C@H]2CCCCC(=O)[*:2])N1].[O=C(CCCCCN[*:1])[*:2]].L.D.S.V.R.I.F.[am]}$$$$V2.0
SMILES: CC[C@H](C)[C@H](NC(=O)[C@H](CCCNC(=N)N)NC(=O)[C@@H](NC(=O)[C@H](CO)NC(=O)[C@H](CC(=O)O)NC(=O)[C@H](CC(C)C)NC(=O)CCCCCNC(=O)CCCC[C@@H]1SC[C@@H]2NC(=O)N[C@@H]21)C(C)C)C(=O)N[C@@H](Cc1ccccc1)C(N)=O
For the molecule B1, the binding result is “no binding”.
